The target in series [1] is T1, GlnZ (with AbNadE2; 2-OG site on GlnZ) (Azospirillum brasilense, UniProt P70731).
T1 construct: GlnZ homotrimer, non-uridylylated (native in activity assay; N-terminal His-tag kept in BLI), recombinant from E. coli; with Glutamine-dependent NAD(+) synthetase
Put plainly: loss of GlnZ relief of NAD+ inhibition of AbNadE2 (PPi release). In kind it is biochemical.

Series [2] deals with T1, GlnZ (with AbNadE2; 2-OG site on GlnZ). As to the kind of experiment: biolayer interferometry, inhibition of GlnZ-AbNadE2 association. It is filed as binding. The protocol:
biolayer interferometry, inhibition of GlnZ-AbNadE2 association on GlnZ (with AbNadE2; 2-OG site on GlnZ) | The binding curves and Ki were determined using the manufactureŕs software
(BLI is a label-free optical method that tracks binding on a fibre tip over time.)

The target of series [3] is Azospirillum brasilense type 2 glutamine-dependent NAD synthetase AbNadE2, native (untagged), purified (Azospirillum brasilense).
Series [4] concerns the target N-terminal His-tagged GlnZ protein of Azospirillum brasilense (Azospirillum brasilense) (UniProt P70731). As to the kind of experiment: BLI; Octet K2; His-GlnZ immobilised on Ni-NTA sensor tip, AbNadE2 as analyte, with ADP (methods: 50 mM Tris-HCl pH 7, 50 mM KCl, 10 mM MgCl2, 2 mM ADP, 2.5 mM NAD+, 1 mg/ml BSA).
The target is the same in series [5]. As to the kind of experiment: BLI; Octet K2; His-GlnZ (2 ug/ml) immobilised on Ni-NTA sensor tip, AbNadE2 30-2000 nM (dimer) as analyte, with ATP (legend: 5 mM MgCl2, 1 mM ATP; methods: 50 mM Tris-HCl pH 7, 50 mM KCl, 10 mM MgCl2, 2 mM ATP, 2.5 mM NAD+, 1 mg/ml BSA).
The target of series [6] is T2, GlnZ-AbNadE2 complex (NAD+ site on AbNadE2) (Azospirillum baldaniorum, UniProt A0A9P1JPD2).
T2 construct: gene nadE; with Nitrogen regulatory protein P-II 2
Put plainly: discontinuous assay of PPi release (EnzChek pyrophosphate kit). In kind it is biochemical.

The target in series [7] is T3, ScNadE2 (ScNadE^Gln) (Synechocystis sp. PCC 6803, UniProt P74292).
T3 construct: gene nadE; full-length, N-terminal His-tag removed with TEV protease, recombinant from E. coli (pTEV5-based pASnadESc); dimer
T3 sequence (P74292 1-558): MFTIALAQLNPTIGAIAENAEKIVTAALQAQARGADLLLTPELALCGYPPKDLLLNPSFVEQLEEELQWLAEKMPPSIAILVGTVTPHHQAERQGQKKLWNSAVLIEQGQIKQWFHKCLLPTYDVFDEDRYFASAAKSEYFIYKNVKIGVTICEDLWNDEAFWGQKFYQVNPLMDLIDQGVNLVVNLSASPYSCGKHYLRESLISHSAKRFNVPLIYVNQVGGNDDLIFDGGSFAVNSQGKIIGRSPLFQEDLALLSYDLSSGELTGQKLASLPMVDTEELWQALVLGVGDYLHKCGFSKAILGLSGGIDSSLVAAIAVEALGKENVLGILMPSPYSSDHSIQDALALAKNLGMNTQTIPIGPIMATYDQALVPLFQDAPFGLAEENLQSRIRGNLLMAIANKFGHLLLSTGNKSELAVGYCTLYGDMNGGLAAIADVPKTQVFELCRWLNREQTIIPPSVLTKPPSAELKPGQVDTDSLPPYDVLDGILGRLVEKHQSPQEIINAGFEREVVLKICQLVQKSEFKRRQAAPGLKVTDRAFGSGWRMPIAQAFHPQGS
Described as above. In kind it is biochemical. The note with it: no PII (2 uM BSA); 100 nM enzyme, 4 mM ATP, 2 mM NaAD, 4 mM L-glutamine, 10 mM MgCl2, pH 8, 30 C.

The target in series [8] is T4, AbNadE2 (AbNadE2^Gln) (Azospirillum baldaniorum, UniProt A0A9P1JPD2).
T4 construct: gene nadE; full-length, untagged ('native AbNadE2'), recombinant from E. coli, purified as described previously; homodimer
T4 sequence (A0A9P1JPD2 1-554): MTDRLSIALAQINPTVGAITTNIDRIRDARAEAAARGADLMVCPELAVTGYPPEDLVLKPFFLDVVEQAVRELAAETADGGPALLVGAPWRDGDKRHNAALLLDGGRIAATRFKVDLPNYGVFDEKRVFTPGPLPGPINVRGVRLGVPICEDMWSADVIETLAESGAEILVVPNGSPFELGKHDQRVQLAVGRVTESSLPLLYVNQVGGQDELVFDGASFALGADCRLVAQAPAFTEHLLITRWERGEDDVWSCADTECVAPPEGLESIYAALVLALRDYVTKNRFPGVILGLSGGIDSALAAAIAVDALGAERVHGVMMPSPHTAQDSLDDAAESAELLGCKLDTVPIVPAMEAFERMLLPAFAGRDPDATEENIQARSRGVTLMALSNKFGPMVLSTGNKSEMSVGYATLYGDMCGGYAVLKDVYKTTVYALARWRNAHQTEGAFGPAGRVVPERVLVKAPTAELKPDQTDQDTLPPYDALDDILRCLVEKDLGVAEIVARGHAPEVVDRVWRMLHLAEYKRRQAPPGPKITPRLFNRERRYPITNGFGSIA
Described as above. The note with it: read-out: IC50 (also called Ki). In kind it is biochemical.

In series [9] the target is T5, HsNadE2 (HsNadE2^Gln) (Herbaspirillum seropedicae, UniProt D8IX05).
T5 construct: gene nadE; full-length, His-tag removed by thrombin, recombinant from E. coli; dimer
T5 sequence (D8IX05 1-565): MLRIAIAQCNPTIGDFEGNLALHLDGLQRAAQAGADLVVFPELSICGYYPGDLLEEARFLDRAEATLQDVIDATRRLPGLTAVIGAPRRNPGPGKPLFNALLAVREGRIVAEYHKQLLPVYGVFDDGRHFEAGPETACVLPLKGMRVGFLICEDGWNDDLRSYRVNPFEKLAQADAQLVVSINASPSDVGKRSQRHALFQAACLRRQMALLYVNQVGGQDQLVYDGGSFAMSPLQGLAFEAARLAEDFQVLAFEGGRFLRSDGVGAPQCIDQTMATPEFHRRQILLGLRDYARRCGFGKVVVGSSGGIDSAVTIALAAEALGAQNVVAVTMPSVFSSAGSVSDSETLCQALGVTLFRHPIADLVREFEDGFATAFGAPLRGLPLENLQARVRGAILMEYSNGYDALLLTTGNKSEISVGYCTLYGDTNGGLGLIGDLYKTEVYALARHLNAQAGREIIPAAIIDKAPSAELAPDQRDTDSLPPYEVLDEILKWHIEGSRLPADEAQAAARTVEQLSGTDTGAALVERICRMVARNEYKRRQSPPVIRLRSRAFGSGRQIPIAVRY
The description is as above. It is filed as biochemical. The note with it: no PII (2 uM BSA); 100 nM enzyme, 4 mM ATP, 2 mM NaAD, 4 mM L-glutamine, 10 mM MgCl2, pH 8, 30 C.

Substrate in series [10]: Nc1ncnc2c1ncn2[C@@H]1O[C@H](COP(=O)(O)OP(=O)([O-])OC[C@H]2O[C@@H]([n+]3cccc(C(=O)O)c3)[C@H](O)[C@@H]2O)[C@@H](O)[C@H]1O
As to the kind of experiment: NAD synthetase activity, Michaelis-Menten fit. In kind it is biochemical, Azospirillum baldaniorum. The note with it: without NAD+, pH 8, 30 C.

Substrate in series [11]: NC(=O)CC[C@H](N)C(=O)O
As to the kind of experiment: purified protein. The note with it: without NAD+, pH 8, 30 C.

As a reminder, the IC50 is the concentration at which inhibition is half-maximal. The Ki is the equilibrium dissociation constant of an inhibitor or competing ligand from its target. In general, Kd refers to the constant that tells how readily two partners part at equilibrium. Low readings indicate higher affinity, high ones lower affinity. One may read the koff as a measure of how fast the partners let go of each other. A lower koff goes with a long-lived complex. Usually kon stands for the second-order rate constant of association. A word on the Km: it is the concentration of substrate that gives half-maximal velocity.

Sequence of N-terminal His-tagged GlnZ protein of Azospirillum brasilense (Azospirillum brasilense) (P70731 entry or part of it): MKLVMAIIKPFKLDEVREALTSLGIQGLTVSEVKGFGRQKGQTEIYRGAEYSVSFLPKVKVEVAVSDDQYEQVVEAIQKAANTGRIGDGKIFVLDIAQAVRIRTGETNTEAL
T1 sequence (P70731 1-112, one chain of several): as the sequence (P70731 entry or part of it) above
T2 sequence (P70731 1-112 partner, one chain of several): as the sequence (P70731 entry or part of it) above
Sequence of Azospirillum brasilense type 2 glutamine-dependent NAD synthetase AbNadE2, native (untagged), purified (Azospirillum brasilense) (A0A0P0EJG6 entry or part of it): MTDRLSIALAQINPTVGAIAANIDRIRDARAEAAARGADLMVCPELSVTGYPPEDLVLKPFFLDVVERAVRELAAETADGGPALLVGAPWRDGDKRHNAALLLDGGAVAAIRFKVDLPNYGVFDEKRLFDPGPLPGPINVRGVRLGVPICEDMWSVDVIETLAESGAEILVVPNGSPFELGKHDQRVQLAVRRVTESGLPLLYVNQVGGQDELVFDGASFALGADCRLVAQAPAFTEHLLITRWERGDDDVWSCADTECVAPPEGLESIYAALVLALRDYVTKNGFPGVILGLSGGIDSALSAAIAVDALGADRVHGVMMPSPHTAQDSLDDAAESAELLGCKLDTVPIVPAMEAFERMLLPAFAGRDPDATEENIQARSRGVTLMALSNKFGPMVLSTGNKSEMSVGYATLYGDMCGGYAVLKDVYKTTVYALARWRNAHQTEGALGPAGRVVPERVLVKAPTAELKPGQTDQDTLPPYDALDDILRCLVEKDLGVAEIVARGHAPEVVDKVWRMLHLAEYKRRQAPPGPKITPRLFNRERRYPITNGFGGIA

`O=C(O)CCC(=O)C(=O)O` [2-oxoglutarate]: in [1], the IC50 stood at 15.5 µM. The affinity in [2] corresponds to a Ki of 52.1 µM.
In [3], “N-terminal His-tagged GlnZ protein of Azospirillum brasilense (from UniProt P70731 1-112) (natural protein)” came in with an activation of AbNadE2 NAD synthetase activity (PPi formation) at 2.5 mM NAD+, 100 nM AbNadE2, GlnZ 0.25-10 uM (trimer); Kact of 640 nM.
In [4], “Azospirillum brasilense type 2 glutamine-dependent NAD synthetase AbNadE2, native (untagged), purified (enzyme)” gave a Kd of 150 nM. In series [5], this molecule yielded a Kd of 300 nM, a koff of 0.0272 s⁻¹ and a kon of 90900 M⁻¹ s⁻¹.
Turning to `NC(=O)c1ccc[n+]([C@@H]2O[C@H](COP(=O)([O-])OP(=O)(O)OC[C@H]3O[C@@H](n4cnc5c(N)ncnc54)[C@H](O)[C@@H]3O)[C@@H](O)[C@H]2O)c1` [NAD^+], the IC50 in series [6] was 2.5 mM; in series [8] it was 1 mM. Also, the “relative activity vs NAD+ concentration” value is reported as “In both cases, NadE2^Gln was inhibited by NAD^+ in a dose-dependent manner” in series [7] and “In both cases, NadE2^Gln was inhibited by NAD^+ in a dose-dependent manner” in [9].

B1: AbNadE2 (AbNadE2^Gln) (Azospirillum baldaniorum) (protein)
chain: T4 sequence (A0A9P1JPD2 1-554)
notes: full-length, untagged ('native AbNadE2'), recombinant from E. coli, purified as described previously; homodimer
On to B1, for which the Km in [10] is on record as 0.08 mM; in series [11] it was 0.72 mM.

The values above are taken from PMC7196632, “NAD^+ biosynthesis in bacteria is controlled by global carbon/nitrogen levels via PII signaling” (The Journal of Biological Chemistry, 2020).
